Measured values: paper PMC8035640
Values belong to the binder of their own block, whether it stands above or below them.

Experiments:
[1] = target: LchD^GGDEV-His, soluble cytoplasmic fragment of LchD (Lysobacter enzymogenes OH11); experiment: MST
PilR-His = target: T1, PilR-His (Lysobacter enzymogenes OH11, UniProt A0A5P2TY02 1-471); experiment: EMSA
T1 sequence: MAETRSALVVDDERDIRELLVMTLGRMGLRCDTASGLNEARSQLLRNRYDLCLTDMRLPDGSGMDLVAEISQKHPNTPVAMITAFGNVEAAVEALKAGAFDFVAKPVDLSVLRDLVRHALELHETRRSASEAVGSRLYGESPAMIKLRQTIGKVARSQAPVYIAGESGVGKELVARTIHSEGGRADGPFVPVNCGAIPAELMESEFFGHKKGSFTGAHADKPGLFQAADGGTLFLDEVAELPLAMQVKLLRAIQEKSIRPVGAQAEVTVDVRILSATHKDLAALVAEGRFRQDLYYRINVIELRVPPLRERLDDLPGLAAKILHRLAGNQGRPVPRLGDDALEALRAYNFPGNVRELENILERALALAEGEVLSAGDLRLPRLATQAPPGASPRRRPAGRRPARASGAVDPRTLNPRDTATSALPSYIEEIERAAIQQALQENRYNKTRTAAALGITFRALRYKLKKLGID

- Kd [1]: 490 nM
B1: Clp-glutathione S-transferase (GST) (natural protein)
chain: MSANPVAPLTALRRTNSPLLPDGATIERFLAHCHRRRYPSRTDVFRPGDPASTLYYVVSGSVSIITEEEDGRELVLGYFGPGEFVGELGLFIESDHREVILRTRSTCELAEIGHERLYDLLLTRLSLDAPKLLYAIGAQISRRLLDTSRKAGRLAFLDVTDRIVRALHDLAKEPEAMSHPQGTQLRVSRQELSRLVGCSREMAGRVLKKLQADGKLHARGKTVVLYGTR

B2: PLchD-2c (dsDNA)
DNA 1: TGACCGGAAGGGGCATGGGGACACCCTGGCGTGGAAGCTGGCGCGGCTGG
DNA 2: CCAGCCGCGCCAGCTTCCACGCCAGGGTGTCCCCATGCCCCTTCCGGTCA
- binding result (PilR-His): no binding

B3: PLchD-2b (dsDNA)
DNA 1: CCTGCACCGGAATGCAGCCCCCTTGGGCTATGCTCGGCACAGCAGACTGG
DNA 2: CCAGTCTGCTGTGCCGAGCATAGCCCAAGGGGGCTGCATTCCGGTGCAGG
- binding result (PilR-His): no binding
